B1: Ev1 (1-221) mutant: Ev1 fragment of amino acid residues 1-221, comprises EVH1 and a proline-rich domain (protein, UniProt Q9UI08 1-221, looked up, fragment)
chain: MSEQSICQARASVMVYDDTSKKWVPIKPGQQGFSRINIYHNTASNTFRVVGVKLQDQQVVINYSIVKGLKYNQATPTFHQWRDARQVYGLNFASKEEATTFSNAMLFALNIMNSQEGGPSSQRQVQNGPSPDEMDIQRRQVMEQHQQQRQESLERRTSATGPILPPGHPSSAASAPVSCSGPPPPPPPPVPPPPTGATPPPPPPLPAGGAQGSSHDESSMS
B2: Ev1 protein: human Ev1 protein (NCBI accession No. AAF21709), recombinant from E. coli, His tag removed (protein)
chain: MATSEQSICQARASVMVYDDTSKKWVPIKPGQQGFSRINIYHNTASNTFRVVGVKLQDQQVVINYSIVKGLKYNQATPTFHQWRDARQVYGLNFASKEEATTFSNAMLFALNIMNSQEGGPSSQRQVQNGPSPDEMDIQRRQVMEQHQQQRQESLERRTSATGPILPPGHPSSAASAPVSCSGPPPPPPPPVPPPPTGATPPPPPPLPAGGAQGSSHDESSMSGLAAAIAGAKLRRVQRPEDASGGSSPSGTSKSDANRASSGGGGGGLMEEMNKLLAKRRKAASQSDKPAEKKEDESQMEDPSTSPSPGTRAASQPPNSSEAGRKPWERSNSVEKPVSSILSRTPSVAKSPEAKSPLQSQPHSRMKPAGSVNDMALDAFDLDRMKQEILEEVVRELHKVKEEIIDAIRQELSGISTT

Experiments:
[1] = test system: φ×174 or M13 mp18 circular single-stranded DNA; experiment: Assay of catenation of single-stranded DNA; assay type: biochemical; conditions: 4 μM protein; 20 μM circular single-stranded DNA; 1 mM MgCl2; 37° C.
Description: (§1) A φ×174 or M13 mp18 circular single-stranded DNA (20 μM) was incubated at 37° C. in 20 mM HEPES-NaOH (pH 7.5), 1 mM DTT, 1 mM MgCl2, and 0.1 mg/ml BSA. Thereafter, the sample was subjected to a deproteination treatment with 0.2% SDS and 1.3 mg/ml proteinase K. The obtained product was separated by 0.9% agarose gel electrophoresis, and a DNA band was then stained with SYBR Gold (Invitrogen).

Ev1 protein = experiment: Influence of Rad51B or Rad51 on catenation of single-stranded DNA by the Ev1 protein; assay type: biochemical; conditions: 4 μM Ev1 mutant plus 4 μM Rad51B protein
Description: Lanes 1 and 5 indicate the results of control experiments in which neither the Ev1 nor the Rad51B protein was used. Lanes 2 and 6 indicate the results of experiments that were carried out using a 4 μM Rad51B protein in the absence of the Ev1 protein. Lanes 3 and 7 indicate the results of experiments that were carried out using a 4 μM Ev1 protein in the absence of the Rad51B protein. Lanes 4 and 8 indicate the results of experiments that were carried out using a 4 μM Ev1 protein and a 4 μM Rad51B protein. Further, lanes 1-4 indicate the results of experiments that were carried out in the presence of ATP, and lanes 5-8 indicate the results of experiments that were carried out in the absence of ATP. […] Lanes 1 and 5 indicate the results of control experiments in which neither the Ev1 nor the Rad51 protein was used. Lanes 2 and 6 indicate the results of experiments that were carried out using a 4 μM Rad51 protein in the absence of the Ev1 protein. Lanes 3 and 7 indicate the results of experiments that were carried out using a 4 μM Ev1 protein in the absence of the Rad51 protein. Lanes 4 and 8 indicate the results of experiments that were carried out using a 4 μM Ev1 protein and a 4 μM Rad51 protein. Further, lanes 1-4 indicate the results of experiments that were carried out in the presence of ATP, and lanes 5-8 indicate the results of experiments that were carried out in the absence of ATP.
The Rad51B protein was mixed in a concentration of 0.5 to 8 μM with a 4 μM Ev1 protein, and the activity was then measured. Lane 1 indicates the results of a control experiment in which neither the Rad51B protein nor the Ev1 protein was added, and lane 8 indicates the results of a control experiment in which a 8 μM Rad51B protein was added and no Ev1 protein was added. Lanes 2-7 indicate the results of experiments in which the Rad51B protein was added in concentrations of 0 μM, 0.5 μM, 1.0 μM, 2.0 μM, 4.0 μM, and 8.0 μM, respectively, in the presence of 4 μM Ev1.
as §1

[2] = test system: φ×174 circular single-stranded DNA; experiment: DNA binding assay (single-stranded DNA); conditions: Ev1 0.2-3.2 μM; 40 μM φ×174 circular single-stranded DNA; 37° C., 15 minutes
Description: (§2) Subsequently, the binding ability of the Ev1 protein to DNA was analyzed. The Ev1 protein was mixed with a φ×174 circular single-stranded DNA (40 μM) or a φ×174 supercoiled double-stranded DNA (10 μM) in 10 μl of a reaction solution (20 mM HEPES (pH 7.5), 1 mM DTT, 1 mM MgCl2, and 100 mg/ml BSA), and the mixture was then reacted at 37° C. for 15 minutes. The reaction product was analyzed by 0.8% agarose gel electrophoresis (3 V/cm, 3 hours) using a 1×TAE (40 mM Tris-acetate and 1 mM EDTA) buffer. A band of DNA was stained with ethidium bromide (FIG. 3).

[3] = test system: φ×174 supercoiled double-stranded DNA; experiment: Activity of Ev1 on supercoiled double-stranded DNA; assay type: biochemical; conditions: 4 μM Ev1; 10 μM φ×174 supercoiled and nicked double-stranded DNA
Description: Lanes 1 and 2 indicate the results obtained using a φ×174 circular single-stranded DNA. Lanes 3 and 4 indicate the results obtained using a M13 mp18 circular single-stranded DNA. In addition, lanes 1 and 3 indicate the results of control experiments in which no Ev1 protein was used, and lanes 2 and 4 indicate the results of experiments in which the Ev1 protein was used. […] A φ×174 circular single-stranded DNA (20 μM, lanes 1-3), or φ×174 supercoiled and nicked double-stranded DNA molecules (10 μM, lanes 4-6) were used to examine the influence of Ev1 (4 μM, lanes 2 and 5) and Escherichia coli-derived topoisomerase type I (5 units, lanes 3 and 6). Lanes 1 and 4 indicate the results of control experiments in which no Ev1 protein was used.
as §1

[4] = test system: φ×174 supercoiled double-stranded DNA; experiment: DNA binding assay (double-stranded DNA); conditions: Ev1 0.2-3.2 μM; 10 μM φ×174 supercoiled double-stranded DNA; 37° C., 15 minutes
Description: as §2

[5] = biological target: T1, Rad51B protein / Ev1 protein (Homo sapiens, UniProt O15315+Q9UI08); experiment: Pull-down assay using Ev1- or Rad51B-bound beads; assay type: binding; conditions: Affi-Gel 10 beads, 10 μg protein, room temperature, 150 minutes
T1 construct: in accordance with the protocols used in purification of the entire-length Ev1 protein; 6xHis (N, cleaved yes); made in house; host or cells: Ev1: E. coli BL21 (DE3) codon plus-RP
T1 sequence (Q9UI08 1-418 isoform Q9UI08-2): B2 chain
T1 sequence (O15315 1-350 isoform O15315-1): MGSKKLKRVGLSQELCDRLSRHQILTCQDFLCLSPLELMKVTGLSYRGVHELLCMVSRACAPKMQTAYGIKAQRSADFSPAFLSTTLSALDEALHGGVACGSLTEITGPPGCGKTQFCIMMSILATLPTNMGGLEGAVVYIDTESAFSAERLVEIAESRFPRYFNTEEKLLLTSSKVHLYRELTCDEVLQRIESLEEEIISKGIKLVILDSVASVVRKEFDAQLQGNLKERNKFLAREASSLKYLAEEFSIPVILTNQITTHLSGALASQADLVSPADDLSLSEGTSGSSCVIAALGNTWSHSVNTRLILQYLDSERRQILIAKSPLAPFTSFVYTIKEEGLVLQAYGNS
Description: Thereafter, the obtained mixture was incubated at 4° C. overnight. The Affi-Gel 10-Ev1 beads were washed 3 times with 500 μl of washing buffer 1 (20 mM potassium phosphate (pH 8.5), 30% glycerol, 700 mM NaCl, 5 mM 2-mercaptoethanol, and 0.05% Triton X-100). The Affi-Gel 10-Rad51B beads were washed 3 times with washing buffer 2 (20 mM HEPES-NaOH (pH 7.3), 30% glycerol, 90 mM NaCl, 2 mM 2-mercaptoethanol, 0.1% Triton X-100, 2 mM ammonium sulfate, and 0.1 mM EDTA). Thereafter, a 50% suspension of such Affi-Gel 10-protein was prepared, and it was then preserved at 4° C.
In order to carry out a binding assay, an Affi-Gel 10-protein suspension (30 μl) was incubated with 10 μg of an Ev1 or Rad51B protein at room temperature for 150 minutes. Affi-Gel 10-Ev1 beads were washed 4 times with 100 μl of buffer 1 (20 mM potassium phosphate (pH 8.5), 30% glycerol, 700 mM NaCl, 5 mM 2-mercaptoethanol, and 0.3% Triton X-100). Affi-Gel 10-Rad51B beads were washed 4 times with 100 μl of buffer 2 (20 mM HEPES-NaOH (pH 7.3), 30% glycerol, 90 mM NaCl, 2 mM 2-mercaptoethanol, 2 mM ammonium sulfate, 0.1 mM EDTA, and 0.35% Triton X-100). An SDS-PAGE sample treatment buffer (2×) was directly mixed with the washed beads, and the obtained mixture was then subjected to a heat treatment at 100° C. for 2 minutes. […]

Molecule | ssDNA catenation activity (multimer formation of circular single-stranded DNA) [1] | ssDNA catenation activity with Rad51B protein added (Ev1 protein) | binding to single-stranded DNA [2] | change of supercoiled double-stranded DNA [3] | binding to supercoiled double-stranded DNA [4] | binding of Ev1 protein to Rad51B (pull-down) [5]
B1 | did not exhibit such ssDNA catenation activity | no activity was detected | – | – | – | –
B2 | the circular single-stranded DNA formed a multimer | – | efficiently binds | the supercoiled double-stranded DNA was not particularly changed | efficiently binds | directly binds to Rad51B
